Test results from article PMC9244803, “Development and Optimization of Bifunctional Fusion Proteins to Locally Modulate Complement Activation in Diseased Tissue” (Frontiers in Immunology, 2022).
Each block holds one binder with its values, some of them ahead of it.

Key:
[1] = biological target: T1, Human C3d crystallised with Fab(3d8b) (human, UniProt P01024); assay: crystal structure; Fab(3d8b):C3d complex, sitting-drop vapor diffusion at 20°C, PEG, pH 7.0 to 8.5; 1.75 Å; PDB 7UE9; settings: both partners purified
T1 construct: human C3d as in PDB 7UE9 chain C

[2] = biological target: T2, C3d deposited in the kidneys of CfH^-/- mice (mouse (endogenous in CfH^-/- mouse …, UniProt P01027)); assay: immunostaining of cells or tissue; proteins injected into CfH^-/- mice; frozen kidney sections taken 7 or 14 days post-dose and stained with anti-Crry or anti-human IgG4; settings: one partner purified
T2 construct: C3d-containing fragments of mouse complement C3 deposited in renal glomeruli; source: endogenous, kidney glomeruli of CfH^-/- mice
T2 sequence (P01027 1002-1303): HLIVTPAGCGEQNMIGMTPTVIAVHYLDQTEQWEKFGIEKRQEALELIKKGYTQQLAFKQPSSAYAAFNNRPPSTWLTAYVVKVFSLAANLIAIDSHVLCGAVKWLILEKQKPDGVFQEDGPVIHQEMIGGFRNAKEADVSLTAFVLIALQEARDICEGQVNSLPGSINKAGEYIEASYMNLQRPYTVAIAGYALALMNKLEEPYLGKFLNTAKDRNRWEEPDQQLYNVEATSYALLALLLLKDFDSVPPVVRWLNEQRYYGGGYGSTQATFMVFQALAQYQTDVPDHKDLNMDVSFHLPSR

T1 sequence (P01024 1002-1303): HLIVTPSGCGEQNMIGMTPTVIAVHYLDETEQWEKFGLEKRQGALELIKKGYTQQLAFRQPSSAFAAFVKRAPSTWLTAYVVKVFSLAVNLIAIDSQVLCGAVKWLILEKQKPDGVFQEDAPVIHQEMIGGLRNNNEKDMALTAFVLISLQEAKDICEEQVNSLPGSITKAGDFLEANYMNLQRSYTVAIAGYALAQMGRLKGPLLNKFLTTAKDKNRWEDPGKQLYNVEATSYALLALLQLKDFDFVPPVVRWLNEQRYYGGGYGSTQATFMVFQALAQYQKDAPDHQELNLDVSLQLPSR

- binding result [1]: binds
B1: humanized Fab(3d8b) (Fab, V domains shown)
VH: QVQLVQSGAEVKKPGASVKVSCKASGYTFTNYYINWVRQAPGQGLEWMGVINPYSGGTSYNQKFKGRVTMTVDTSTSTAYMELSSLRSEDTAVYFCSSPYWGQGTLVTVSS
VL: DVVMTQSPLSLPVTLGQPASISCKSSQSLLDSDGKTYLNWFQQRPGQSPRRLIYLVSKLDSGVPDRFSGSGSGTDFTLKISRVEAEDVGVYYCWQGTHFPRTFGGGTKVEIK
notes: heavy chain (H) of PDB 7UE9; light chain (L) of PDB 7UE9; CDRs of mouse clone 3d8b grafted onto a human framework; solved with an IgG4-derived Fab (PDB 5DK3) as search model; also called 3d8b Fab

- binding result [2]: binds
B2: humanized C3d mAb (CDRs of 3d8b grafted onto human IgG4 S228P, L235E) (antibody, V domains shown)
VH: B1 VH
VL: B1 VL
notes: humanised heavy variable region with the CDRs of 3d8b; as the variable region of the heavy chain of m3 (PDB 7UE9 chain H); human IgG4 heavy constant region, hinge stabilized and Fc-mutated; humanised light chain with the CDRs of 3d8b; as the light chain of m3 (PDB 7UE9 chain L); IgG4; source: CHO cells, transient, purified (Protein A or IMAC, SEC)

- binding result [2]: binds
B3: humanized C3d mAb-CR1_(1-10) (antibody, V domains shown)
VH: B1 VH
VL: B1 VL
notes: humanised heavy variable region with the CDRs of 3d8b; as the variable region of the heavy chain of m3 (PDB 7UE9 chain H); human IgG4 heavy constant region, hinge stabilized and Fc-mutated; (Gly4Ser)2 linker; human complement receptor type 1 (CR1), the first 10 consensus repeats; humanised light chain with the CDRs of 3d8b; as the light chain of m3 (PDB 7UE9 chain L); also called lead fusion …
